The values below come from patent US20030144339A1, “Indole derivatives as mcp-1 receptor antagonists” (priority 2000, published 2003).

Broadly, the IC50 is the point on the concentration scale where inhibition reaches its midpoint. As a reminder, the Kd is the constant that tells how readily two partners part at equilibrium. What is called EC50 is the midpoint of the concentration-response curve.

Experiment [1] has as its target T1, MCP-1 receptor B (CCR2B) (Homo sapiens, UniProt P41597).
T1 construct: expressed in transfected cells; membrane fragments
T1 sequence (P41597 1-360 isoform P41597-2): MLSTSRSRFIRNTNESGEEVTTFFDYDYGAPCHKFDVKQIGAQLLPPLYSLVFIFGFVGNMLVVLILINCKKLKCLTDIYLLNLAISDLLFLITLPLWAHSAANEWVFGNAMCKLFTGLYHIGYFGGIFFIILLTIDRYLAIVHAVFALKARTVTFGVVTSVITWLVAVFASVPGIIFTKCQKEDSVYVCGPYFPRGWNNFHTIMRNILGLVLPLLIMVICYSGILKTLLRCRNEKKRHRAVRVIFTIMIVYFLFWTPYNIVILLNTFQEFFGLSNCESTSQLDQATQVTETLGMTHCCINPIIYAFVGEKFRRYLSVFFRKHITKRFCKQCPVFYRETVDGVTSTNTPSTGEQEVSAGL
Put plainly: hMCP-1 receptor binding assay (125I-MCP-1, CHO-CCR2B cell membranes). The text has this:
The MCP-1 receptor B (CCR2B) cDNA was cloned by PCR from ThP-1 cell RNA using suitable oligonucleotide primers based on the published MCP-1 receptor sequences (Charo et al., 1994, Proc. Natl. Acad. Sci. USA, 91, 2752). The resulting PCR products were cloned into vector PCR-II™ (In Vitrogen, San Diego, Calif.). Error free CCR2B cDNA was subcloned as a Hind III-Not I fragment into the eukaryotic expression vector pCDNA3 (In Vitrogen) to generate pCDNA3/CC-CKR2A and pCDNA3/CCR2B respectively.
Linearised pCDNA3/CCR2B DNA was transfected into CHO-K1 cells by calcium phosphate precipitation (Wigler et al., 1979, Cell, 16, 777). Transfected cells were selected by the addition of Geneticin Sulphate (G418, Gibeo BRL) at 1 mg/ml, 24 hours after the cells had been transfected. Preparation of RNA and Northern blotting were carried out as described previously (Needham et al., 1995, Prot. Express. Purific., 6, 134). CHO-K1 clone 7 (CHO-CCR2B) was identified as the highest MCP-1 receptor B expresser.
CHO-CCR2B cells were grown in DMEM supplemented with 10% foetal calf serum, 2 mM glutamine, 1× Non-Essential Amino Acids, 1× Hypoxantiine and Thymidine Supplement and Penicillin-Streptomycin (at 50 μg streptomycin/ml, Gibco BRL). Membrane fragments were prepared using cell lysis/differential centrifuigation methods as described previously (Siciliano et al., 1990, J. Biol. Chem., 265, 19658). […]

The test system of experiment [2] is THP-1 cells. Put plainly: hMCP-1 mediated chemotaxis of THP-1 cells. The note with it: 2 h at 37° C. The class given is cell-based, human. On the procedure:
In vitro chemotaxis assays were performed using the human monocytic cell line THP-1. Cell migration through polycarbonate membranes was measured by enumerating those passing through either directly by Coulter counting or indirectly by use of a colourimetric viability assay measuring the cleavage of a tetrazolium salt by the mitochondrial respiratory chain (Scudiero D. A. et al. 1988, Cancer Res., 48, 4827-4833).
Chemoattractants were introduced into a 96-well microtitre plate which forms the lower well of a chemotaxis chamber fitted with a PVP-free 5 μm poresize polycarbonate adhesive framed filter membrane (NeuroProbe MB series, Cabin John, Md. 20818, USA) according to the manufacturer's instructions. […] The plate was incubated at 37° C. for 3 h and the absorbance of the soluble formazan product was read on a microtitre plate reader at 450 nm. The data was input into a spreadsheet, corrected for any random migration in the absence of chemoattractant and the average absorbance values, standard error of the mean, and significance tests were calculated. bMCP-1 induced concentration dependent cell migration with a characteristic biphasic response, maximal 0.5-1.0 nm.

Experiment [3] relates to THP-1 cells. Put plainly: MCP-1 mediated calcium flux in THP-1 cells. The class given is cell-based, human. Conditions: FURA-2, stimulation with hMCP-1, read-out: EC50 of rise in [Ca2+]i. On the procedure:
The human monocytic cell line TIP-1 was grown in a synthetic cell culture medium RPM 1640 supplemented with 10% foetal calf serum, 6 mM glutamine and Penicillin-Streptomycin (at 50 μg streptomycin/ml, Gibeo BRL). THP-1 cells were washed in HBSS (lacking Ca^2+ and Mg^2+)+1 mg/ml BSA and resuspended in the same buffer at a density of 3×10^6 cells/ml. The cells were then loaded with […] FURA-2/AM for 30 mrin at 37° C., washed twice in HBSS, and resuspended at 1×10^6 cells/ml. TrP-1 cell suspension (0.9 ml) was added to a 5 ml disposable cuvette containing a magnetic stirrer bar and 2.1 ml of prewarmed (37° C.) HBSS containing 1 mg/ml BSA, 1 mM MgCl2 and 2 mM CaCl2. The cuvette was placed in a fluorescence spectrophotometer (Perkin Elner, Norwalk, Conn.) and preincubated for 4 min at 37° C. with stirring. Fluorescence was recorded over 70 sec and cells were stimulated by addition of hMCP-1 to the cuvette after 10 sec. [Ca^2+]i was measured by excitation at 340 nm and 380 nm alternately and subsequent measurement of the intensity of the fluorescence emission at 510 nm.
where the Kd for FURA-2 Ca^2+ complex at 37° C. was taken to be 224 nm. […]
Background: Calcium assays in cells follow changes in intracellular calcium, usually with a dye or a luminescent sensor.

In the case of “MCP-1: Human Monocyte Chemoattractant Protein-1, a C-C chemokine; natural ligand of the CCR2 receptor, used as assay ligand/stimulus”, in experiment [1] (cold competition with 100 pM 125I-labeled MCP-1, room temperature, read-out: IC50 of MCP-1 binding to CHO-CCR2B membrane fragments), the IC50 worked out at 0.11 nM. In addition, the Kd in experiment [1] (equilibrium binding, room temperature, read-out: Kd of MCP-1 binding to CHO-CCR2B membrane fragments) stood at 0.12 nM. The “concentration giving maximal cell migration (biphasic response)” value in experiment [2] is 0.5-1.0 nm. In addition, the half-maximal effective concentration (EC50) in experiment [3] was about 2 nM.
